Data from publication PMC7235218, “HIV-1 Tat – TLR4/MD2 interaction drives the expression of IDO-1 in monocytes derived dendritic cells through NF-κB dependent pathway” (Scientific Reports, 2020).

Target: T1, Recombinant human TLR4/MD2 complex (human, UniProt O00206 24-631; Q9Y6Y9 19-160)
T1 construct: Toll-like receptor 4 (TLR4), human, soluble recombinant; MD2 (lymphocyte antigen 96), human, recombinant; No catalogue number is printed; also called rTLR4/MD2; soluble recombinant TLR4/MD2; source: bought: R&D system
T1 sequence (O00206 24-631, chain 1 of 2): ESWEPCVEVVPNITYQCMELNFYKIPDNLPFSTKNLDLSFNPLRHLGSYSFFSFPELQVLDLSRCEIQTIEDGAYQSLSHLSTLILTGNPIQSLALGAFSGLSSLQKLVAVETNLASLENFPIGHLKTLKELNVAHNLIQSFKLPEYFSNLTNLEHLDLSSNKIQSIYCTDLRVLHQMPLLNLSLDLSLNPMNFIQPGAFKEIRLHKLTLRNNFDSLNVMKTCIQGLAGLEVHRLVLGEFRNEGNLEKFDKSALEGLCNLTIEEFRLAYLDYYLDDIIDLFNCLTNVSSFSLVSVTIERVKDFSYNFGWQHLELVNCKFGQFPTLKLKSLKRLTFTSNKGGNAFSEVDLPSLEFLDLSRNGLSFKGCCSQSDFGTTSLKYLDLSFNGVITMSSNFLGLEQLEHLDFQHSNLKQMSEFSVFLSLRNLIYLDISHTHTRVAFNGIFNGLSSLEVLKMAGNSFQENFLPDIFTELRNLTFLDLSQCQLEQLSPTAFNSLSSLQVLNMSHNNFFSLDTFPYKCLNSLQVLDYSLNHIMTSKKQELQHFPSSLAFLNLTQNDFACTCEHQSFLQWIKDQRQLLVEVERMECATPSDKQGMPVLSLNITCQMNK
T1 sequence (Q9Y6Y9 19-160, chain 2 of 2): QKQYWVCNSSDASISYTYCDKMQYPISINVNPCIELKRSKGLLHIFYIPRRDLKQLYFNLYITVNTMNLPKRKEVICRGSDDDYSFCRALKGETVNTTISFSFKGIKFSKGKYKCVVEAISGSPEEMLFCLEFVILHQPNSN
Assay: ELISA; solid-phase binding assay: recombinant TLR4/MD2 (1 µg/ml) coated on 96 maxisorp well plates overnight at 4 °C; GST or GST-Tat at 0.1-1 µM for 2 hours at room temperature; detected with anti-GST and a peroxidase-conjugated secondary antibody
Conditions: both partners purified

B1: Recombinant HIV-1 Tat full length protein (Tat 1-101) fused to glutathione S-transferase (natural protein)
chain: MEPVDPNLEPWKHPGSQPRTACNNCYCKKCCFHCYACFTRKGLGISYGRKKRRQRRRAPQDSQTHQASLSKQPASQSRGDPTGPTESKKKVERETETDPFD
notes: Tat protein of HIV-1 group M subtype B (isolate SF2), full length protein, Tat 1-101; Endotoxin below 0.3 EU/µg; also called GST-Tat 1-101; GST-Tat1-101
binding result: binds
